The assay has as its target EBOV GP on infectious virus (Ebola virus , Mayinga) (UniProt Q05320). Put plainly: cell-based or functional assay.

Bounds are passed on as bounds.

Chain of UniProt Q05320 (Q05320 33-676): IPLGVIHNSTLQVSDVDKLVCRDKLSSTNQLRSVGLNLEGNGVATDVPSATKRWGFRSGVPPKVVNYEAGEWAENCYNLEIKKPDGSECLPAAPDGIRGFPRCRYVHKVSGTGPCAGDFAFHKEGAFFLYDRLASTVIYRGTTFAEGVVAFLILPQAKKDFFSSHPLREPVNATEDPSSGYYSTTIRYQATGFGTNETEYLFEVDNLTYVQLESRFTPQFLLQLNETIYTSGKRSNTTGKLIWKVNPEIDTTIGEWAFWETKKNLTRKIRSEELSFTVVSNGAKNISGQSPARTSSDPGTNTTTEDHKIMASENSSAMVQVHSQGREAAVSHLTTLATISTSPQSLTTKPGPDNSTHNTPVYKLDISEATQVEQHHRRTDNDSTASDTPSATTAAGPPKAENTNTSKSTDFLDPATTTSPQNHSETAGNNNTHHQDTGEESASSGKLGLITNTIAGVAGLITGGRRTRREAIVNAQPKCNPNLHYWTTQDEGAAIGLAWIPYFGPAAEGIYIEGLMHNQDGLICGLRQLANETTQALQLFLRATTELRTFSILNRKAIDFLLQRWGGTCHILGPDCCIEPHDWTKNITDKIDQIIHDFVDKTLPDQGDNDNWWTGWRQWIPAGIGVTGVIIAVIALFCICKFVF

B1: rEBOV-442 IgG1 (antibody, V domains shown)
VH: EVQLVESGGGLVKPGGSLRLSCTGSGGTGFTFKYAGMSWVRQAPGKGPEWIGRIKSRIDGGTTDYAAPVKDRFIVSRDDSRNTLYLQMNSLKTEDTAVYYCATGSGKGPSASFGESYYYYDFINVWGKGTTVTVSS
VL: ESVLTQSPGTLSLSPGERATLSCRASQSISRKYLAWYQQKPGQAPRLLIYGSSSRATGIPDRFSGSGSGTDFTLTISRLEPEDFAVYYCHQYESSPWTFGQGTKVEIK
B1 registered a half maximal inhibitory concentration (IC50), neutralization of VSV/EBOV GP below 1.5 µg/mL.

B2: rEBOV-515 (recombinant wild-type IgG1) (antibody, V domains shown)
VH: QVQLHESGPGLVKPSQTLSLTCTVSGGSINSAGYYWTWIRQHPGKGLEWIGYIDYTGRTYYNPSLESRVIISIDTSKNHFSLRLTSVSAADTAVYYCARESSWVSELGRDNWGQGTLVTVSS
VL: EIVMTQSPATLPVSPGEGATLSCRASQSVFTNLAWYQQKPGQAPRLLIYDASTRATGIPARFSGSGSGTEFTLTISSLQSEDFAVYYCQQYNNWPRTYGQGTRVEVK
B2 showed a half maximal inhibitory concentration (IC50), neutralization of VSV/EBOV GP below 1.5 µg/mL.

Values taken from US20240287160A1.
